Measurements published in PMC2686680, “Chibby forms a homodimer through a heptad repeat of leucine residues in its C-terminal coiled-coil motif” (BMC Molecular Biology, 2009).

B1: Cby wild type fused to the N-terminal (RN) or C-terminal (RC) portion of synthetic Renilla luciferase (hRluc) [human] / itself (parent complex)
chain: MPFFGNTFSPKKTPPRKSASLSNLHSLDRSTREVELGLEYGSPTMNLAGQSLKFENGQWIAETGVSGGVDRREVQRLRRRNQQLEEENNLLRLKVDILLDMLSESTAESHLMEKELDELRISRKRK

Variants of: B1
Test: split hRluc protein-fragment-assisted complementation assay; HEK293T cells; expression plasmids 400 ng each; triplicate, means ± SD; read off a plot

Row | Variant | response
1 | MPFFGNTFSPKKTPPRKSASLSNLHSLDRSTREVELGLEYGSPTMNLAGQSLKFENGQWIAETGVSGGVDRREVQRARRRNQQLEEENNLARLKVDILLDMLSESTAESHLMEKELDELRISRKRK [chain 1 L77A, chain 1 L91A] | ~0.55
2 | MPFFGNTFSPKKTPPRKSASLSNLHSLDRSTREVELGLEYGSPTMNLAGQSLKFENGQWIAETGVSGGVDRREVQRLRRRNQQLEEENNLLRLKVDIALDMLSESTAESHLMEKELDELRISRKRK [chain 1 L98A] | ~5.4
3 | MPFFGNTFSPKKTPPRKSASLSNLHSLDRSTREVELGLEYGSPTMNLAGQSLKFENGQWIAETGVSGGVDRREVQRLRRRNQQAEEENNLLRLKVDIALDMLSESTAESHLMEKELDELRISRKRK [chain 1 L84A, chain 1 L98A] | ~0.28
4 | MPFFGNTFSPKKTPPRKSASLSNLHSLDRSTREVELGLEYGSPTMNLAGQSLKFENGQWIAETGVSGGVDRREVQRLRRRNQQAEEENNLLRLKVDILLDMLSESTAESHLMEKELDELRISRKRK [chain 1 L84A] | ~1.9
5 | MPFFGNTFSPKKTPPRKSASLSNLHSLDRSTREVELGLEYGSPTMNLAGQSLKFENGQWIAETGVSGGVDRREVQRLRRRNQQLEEENNLARLKVDIALDMLSESTAESHLMEKELDELRISRKRK [chain 1 L91A, chain 1 L98A] | ~0.7
6 | MPFFGNTFSPKKTPPRKSASLSNLHSLDRSTREVELGLEYGSPTMNLAGQSLKFENGQWIAETGVSGGVDRREVQRLRRRNQQLEEENNLARLKVDILLDMLSESTAESHLMEKELDELRISRKRK [chain 1 L91A] | ~4
7 | MPFFGNTFSPKKTPPRKSASLSNLHSLDRSTREVELGLEYGSPTMNLAGQSLKFENGQWIAETGVSGGVDRREVQRARRRNQQAEEENNLARLKVDIALDMLSESTAESHLMEKELDELRISRKRK [chain 1 L77A, chain 1 L84A, chain 1 L91A, chain 1 L98A] | ~0.5
8 | MPFFGNTFSPKKTPPRKSASLSNLHSLDRSTREVELGLEYGSPTMNLAGQSLKFENGQWIAETGVSGGVDRREVQRARRRNQQAEEENNLLRLKVDILLDMLSESTAESHLMEKELDELRISRKRK [chain 1 L77A, chain 1 L84A] | ~0.18
9 | MPFFGNTFSPKKTPPRKSASLSNLHSLDRSTREVELGLEYGSPTMNLAGQSLKFENGQWIAETGVSGGVDRREVQRARRRNQQLEEENNLLRLKVDILLDMLSESTAESHLMEKELDELRISRKRK [chain 1 L77A] | ~3.2
